Test results from the supplement of paper PMC9170038.
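Note: bound reporter read as fluorescence of individual clusters on recovered sequencing chips by microscopy, with normalized cluster intensities fitted with a binding model.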

Each sequence was assayed on K4 kissing-loop RNA reporter (assay: apparent KD of K4 kissing-loop reporter; higher = weaker reporter binding). Settings: Eterna round: R107; input ligand: FMN 200 uM.
Procedure: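 RNA-MaP round R107: designed RNA switches with theophylline, tryptophan, arginine or FMN aptamers are transcribed on-chip within common flanks. They are titrated with a labelled K4 kissing-loop RNA reporter in RNA-MaP buffer (100 mM Tris pH 7.5, 80 mM KCl, 4 mM MgCl2), without ligand or with the indicated ligand. Median apparent KD per design.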
With “AAGCGUGUCGCGGCCGCCACUCCUGAGUGAUGUUCAGAAAGCAGUUUUUUAUUCAGGAAAAGCGCGAGGACCGGGCGACGCCGAU [theeternabot_sameState_KL_Trp_B_1]” the “apparent KD of K4 kissing-loop reporter” value was 367 nM. “AGUGUGCAAAAGCACACUCAGUACAAGGACAAGGAUAUCUACUAAUAGAGAAGGUGUCCUUUCCUUAGUGAUGUUAAGGAGCUGA [Omei KL FMN A SS D v2]” was tested, and the “apparent KD of K4 kissing-loop reporter” value was 177 nM. With “AGGGCGGAGUGAUGUUCCGGCUCCCGAUUUAAGGAUAUUGCGUAAACAAGAAGGUAAAGGCGCAGCAAUAUUAUUUCGUAAGGCG [theeternabot_exclusion_KL_FMN_A_23]” the “apparent KD of K4 kissing-loop reporter” value was 85.5 nM. With “AAAUAGAUCAGUCAUCCAGUGAUGUUGGAAGGAGCGUGCGAAAGCACAGGUAGGUCGCCAGAAUAAAAGUGGCUGAUCAAAAUAA” the “apparent KD of K4 kissing-loop reporter” value was 273 nM. With “UGGACAUGACUCGAUAAGAGUCAAUGAGAUACCAGUGACGAAAGUCACCCUUGGCAGCUCAACUGCCAGUGAUGUUGGUAGUCCU [#SwitchBubble #StaticStem]” the “apparent KD of K4 kissing-loop reporter” value was 739 nM. “CCAUUCAUUUACGAUACCAGUCUAAUAUAUUUAAUCAAAACCCUCGCCGAGUGAUGUUCGGACCCUUGGCAGCGUCUGCGACAGG [cyycmullin]” was tested, and the “apparent KD of K4 kissing-loop reporter” value was 354 nM. For “ACUGGAAUUGUACUCCAGUGAUGUUGGAGGCAGGAUAUCCAGUAAAGGAGAAGGGCCAUCGCGCUAUUUAGCCGCAGGCGGCUAA [Atrilazaed]”, the “apparent KD of K4 kissing-loop reporter” value was 251 nM. With “UGAUCAACAUCUGAUACCAGUCGCUCGAGUAAUCAACCGUGGCUAGUGAUGUUGGCUUUUGACCCUUGGCAGCAGAAUCGUGUCA [theeternabot_sameState_KL_Theo_B_20]” the “apparent KD of K4 kissing-loop reporter” value was 134 nM. For “GGACCUCAGUGAUGUUGAGGUAACACUGAUACCAGCGACUUAAUUCGCCCUUGGCAGCAGUCCACCGAGGUAUCUGAUUAGGUCU [#23 K4 Theophylline A Exclusion]”, the “apparent KD of K4 kissing-loop reporter” value was 211 nM. In the case of “UGGAGUUGACGAAAAGUCAACUCCUGAGAUACCAGUGACGAAAGUCACCCUUGGCAGCUCACUGGCAGUGAUGUUGCUAAAUAAA [KL-SSTheo-A2]”, the “apparent KD of K4 kissing-loop reporter” value is reported as 57.3 nM. “UGUAAUGGCUGAGCAGCCGUGGUACGAGAUACCAGUGAUUUCGAUCACCCUUGGCAGCUCGGCGUGAGUGAUGUUCACGCUACAC [Theo A SS t12]” was tested, and the “apparent KD of K4 kissing-loop reporter” value was 201 nM. “UGAUACCAGACGGCCGCCACUCCCGUAAGUCAAAGACUUACGAAGAGGGUUUUUCAGUGAUGUUGGAGGACCGGGUCUGGUAUCU [FiskerMod 17 - Jieux - Exclusion - Tryptophan B]” was tested, and the “apparent KD of K4 kissing-loop reporter” value was 516 nM. With “ACGUCCGGGUUAAUCGUGGGCGUGGUGGAUACCAGUUCUUUAAUGAACCCUUGGCAGCCACAUGAGUGAUGUUCAUGUGCGAUGA [KL-XTheo-A10 #analogue]” the “apparent KD of K4 kissing-loop reporter” value was 100 nM. With “CGCGAGUCCUUUCAGUGAGUGAUGUUUACGCGAGGACCGGUACGGCCGCCACUCGAUGGUAUACCAAGACAUCAGCAGAUUGUCU [theeternabot_exclusion_KL_Trp_A_18]” the “apparent KD of K4 kissing-loop reporter” value was 304 nM. For “GCGCGUCAUGUCAGCGGUGACACUGUCGAUACCAGCGCCGAAAGGCGCCCUUGGCAGCGACGUGCUGGAGUGAUGUUCCAGCGUG [#2 Exclusion - Theophylline A Attempt #25 (HarryS)]”, the “apparent KD of K4 kissing-loop reporter” value was 197 nM.

Same assay, conditions: Eterna round: R107; input ligand: arginine 13.2 mM
“UCAGUGAUGUUGAACAAAUAAUGGUUCCUAAAGGAUAUCCACAGAUGGAGAAGGUUAGUAGCGGCUCGCACAUCGUAGGACAAAU [theeternabot_exclusion_KL_FMN_A_1]” was tested, and the “apparent KD of K4 kissing-loop reporter” value was 648 nM. With “UUAGAUCAAAGAUCAGUCUUAUGGAGGGAACGAGGACCGGUACGGCCGCCACUCGAGUGAUGUUCGAGAACCCUCGUGACAAAUU [AK4 EXC Tryptophan A]” the “apparent KD of K4 kissing-loop reporter” value was 146 nM. For “ACGCGCGUGCGCUGGAAAGCGCACGCGCGUCGAGGACCGGUACGGCCGCCACUCGCUCGCGCCGAGUGAUGUUCGGCCGGCGAAC [#2 SameState - Tryptophan_A Attempt #2 (HarryS)]”, the “apparent KD of K4 kissing-loop reporter” value was 288 nM. In the case of “UGUACCGAGUCAGGAUAUGAACGACUGACAAAAGUCGGUCGAAUAUCCAGUGAUGUUGGAAAUAAAUCAGAAGGGACUUGGUACU [FmnBS 15 #SwitchBubble #StaticStem]”, the “apparent KD of K4 kissing-loop reporter” value is reported as 805 nM. For “GUUCUGAUGGAAACAUCGGAACAUACUGAUACCAGUAUCGAUAGAUACCCUUGGCAGCAGAAUCAGUAAUAACGAGUGAUGUUCG [Ex Theophylline A K4 2]”, the “apparent KD of K4 kissing-loop reporter” value was 247 nM. With “GAUUCAGUGAUGUUGGAAGGCGAGCGGGAUACCAGCGGAGACUCACGCCCUUGGCAGCCCACAUAUCCCAGGUAGAUAAUAGAUC [Same State - Theophylline A (Freestyle 7)]” the “apparent KD of K4 kissing-loop reporter” value was 123 nM. For “UGAUACCAGACGGCCGCCACUACACCAGUCAAAGACUGGAUGUGAUGUUUGACCAGUGAUGUUGGUAGGACCGGGUCUGGUAUCU [TrypBX 5 #Palindromic #SwitchBubble #StaticStem]”, the “apparent KD of K4 kissing-loop reporter” value was 394 nM. For “AAAAUAAGCCAGUGAUGUUGGGAUCCAGAUACCAGCGACGAAAGUCGCCCUUGGCAGCUGUGGACGUACAAAAUAAGUACGUCCU”, the “apparent KD of K4 kissing-loop reporter” value was 706 nM. With “UCUCCAGUGAUGUUGGAGACGGAUGAGGAAGGAGCGGGCACGUGCCCAGGUAGGUCGCCUCGAAAGCCCUGUAGCAUCGCGAAAC [Disoribe]” the “apparent KD of K4 kissing-loop reporter” value was 188 nM. In the case of “AAGGGCGGGACUUUCUCGCCGGAUAGAGAUACCAGCCCAGCAAUGGGCCCUUGGCAGCUCACUGACCUCAGUGAUGUUGAGGUUC [Quintege]”, the “apparent KD of K4 kissing-loop reporter” value is reported as 214 nM. For “AUCGUUGUCUGAGGAUAUCGGUUAUCUGUAGUGAUGUUACAGUAUAUUGAUAUUAUAGUUUCUUUUCGAGAAGGCAGACUACGUA [JR_Nu_ExcFMNB_Sub021]”, the “apparent KD of K4 kissing-loop reporter” value was 61.3 nM.
